For experiment [1], the target named is PorK with a C-terminal twin strep tag (PorK-Strep), subunit of the purified PorKN ring (Porphyromonas gingivalis). Briefly: cryo-EM structure; PorKN rings purified from P. gingivalis through the twin strep tag on PorK (Strep-Tactin, 0.5% Triton X-100); single and double rings; whole rings at 7.4 Å (single) and 5.6 Å (double) with 33-fold symmetry; focused refinement of a segment in C1 to 3.2 Å.

In experiment [2] the target is PorN, subunit of the purified PorKN ring (Porphyromonas gingivalis (endogenous in P. gingivalis)). Described as above.

The text below walks through data of publication PMC12421860.

“PorK with a C-terminal twin strep tag (PorK-Strep), subunit of the purified PorKN ring (natural protein)”: the stoichiometry N in experiment [1] is 33. The substance “PorN, subunit of the purified PorKN ring (natural protein)” returned a stoichiometry N in experiment [2] of 33.

By stoichiometry N is commonly meant the number of molecules, sites or subunits per partner or assembly.
